Experimental findings from patent US20050196396A1 (GREENVILLE HOSPITAL SYSTEM, published 2005) are described below.

The target in this test is T1, KDR (full length, on cells) (human, UniProt P35968 20-1356).
T1 construct: whole, on cells; also called VEGFR2; kinase domain receptor
Briefly: radioligand binding on HUVEC; 125I-KDR (Ig4-7) displaced by unlabeled KDR (Ig4-7). The protocol:
¹²⁵I-KDR (Ig4-7) (100,000 cpm=<1 ng) was incubated with HUVEC.
Total binding of KDR (Ig4-7) was also compared between HUVEC and two human breast cancer cell lines that were reported to have KDR expression (T47-D and MCF-7 cell lines) (FIG. 7). Specific binding of KDR (Ig4-7) was approximately 88%.

T1 sequence (P35968 20-1356): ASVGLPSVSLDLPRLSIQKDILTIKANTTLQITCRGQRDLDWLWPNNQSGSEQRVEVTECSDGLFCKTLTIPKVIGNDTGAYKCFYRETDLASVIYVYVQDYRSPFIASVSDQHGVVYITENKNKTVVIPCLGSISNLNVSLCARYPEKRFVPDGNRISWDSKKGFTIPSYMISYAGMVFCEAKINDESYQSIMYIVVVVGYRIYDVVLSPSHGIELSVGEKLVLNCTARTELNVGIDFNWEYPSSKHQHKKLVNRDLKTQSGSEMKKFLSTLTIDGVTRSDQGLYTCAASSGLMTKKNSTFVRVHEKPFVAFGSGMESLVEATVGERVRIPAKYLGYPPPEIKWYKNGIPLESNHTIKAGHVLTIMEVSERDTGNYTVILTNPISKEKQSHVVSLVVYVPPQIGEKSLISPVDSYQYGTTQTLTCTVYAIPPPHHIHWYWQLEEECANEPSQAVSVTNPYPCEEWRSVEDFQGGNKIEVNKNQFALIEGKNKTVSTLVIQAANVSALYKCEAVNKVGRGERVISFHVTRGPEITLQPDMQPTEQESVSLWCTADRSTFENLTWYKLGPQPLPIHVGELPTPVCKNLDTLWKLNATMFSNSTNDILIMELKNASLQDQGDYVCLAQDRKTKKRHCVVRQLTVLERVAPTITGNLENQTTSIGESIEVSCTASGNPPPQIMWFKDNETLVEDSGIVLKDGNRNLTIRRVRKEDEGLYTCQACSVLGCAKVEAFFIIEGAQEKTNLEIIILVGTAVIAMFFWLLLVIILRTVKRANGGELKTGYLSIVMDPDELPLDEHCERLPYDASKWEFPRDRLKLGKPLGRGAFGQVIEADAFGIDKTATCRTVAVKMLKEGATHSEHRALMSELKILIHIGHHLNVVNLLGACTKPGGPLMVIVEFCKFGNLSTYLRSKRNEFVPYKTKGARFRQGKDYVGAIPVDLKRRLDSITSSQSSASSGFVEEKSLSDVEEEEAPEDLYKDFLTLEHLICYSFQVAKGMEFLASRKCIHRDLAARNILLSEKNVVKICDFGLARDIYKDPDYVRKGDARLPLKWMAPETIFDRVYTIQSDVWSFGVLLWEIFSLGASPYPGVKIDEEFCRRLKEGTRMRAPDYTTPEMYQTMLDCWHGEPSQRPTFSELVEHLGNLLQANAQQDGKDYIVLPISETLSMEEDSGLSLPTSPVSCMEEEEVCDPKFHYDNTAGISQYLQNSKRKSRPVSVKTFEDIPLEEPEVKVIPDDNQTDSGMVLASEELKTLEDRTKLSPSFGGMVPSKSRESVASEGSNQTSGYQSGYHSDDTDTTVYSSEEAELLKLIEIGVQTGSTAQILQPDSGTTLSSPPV

B1: KDR (Ig4-7) (receptor)
chain: HMFVAFGSGMESLVEATVGERVRIPAKYLGYPPPEIKWYKNGIPLESNHTIKAGHVLTIMEVSERDTGNYTVILTNPISKEKQSHVVSLVVYVPPQIGEKSLISPVDSYQYGTTQTLTCTVYAIPPPHHIHWYWQLEEECANEPSQAVSVTNPYPCEEWRSVEDFQGGNKIEVNKNQFALIEGKNKTVSTLVIQAANVSALYKCEAVNKVGRGERVISFHVTRGPEITLQPDMQPTEQESVSLWCTADRSTFENLTWYKLGPQPLPIHVGELPTPVCKNLDTLWKLNATMFSNSTNDILIMELKNASLQDQGDYVCLAQDRKTKKRHCVVRQLTVLERVAPTITGNLENQTTSIGESIEVSCTASGNPPPQIMWFKDNETLVEDSGIVLKDGNRNLTIRRVRKEDEGLYTCQACSVLGCAKVEAFFIIEGAQEK
modifications: 125I-labeled as tracer (labelled residues not stated); unlabeled as competitor
notes: also called 125I-KDR (Ig4-7); 125I-labeled KDR (Ig4-7)
With B1, the concentration giving a half-maximal response (EC50) (commonly the concentration giving half of the maximal effect) was around 10 µg/mL.
